The values that follow come from publication PMC4377555, “A novel PKD2L1 C-terminal domain critical for trimerization and channel function” (Scientific Reports, 2015).

“And” between values parts separate entries of the source, which are not always exact repeats. Identical values can stand only once.

Data set [1] deals with the molecule itself. The data set is described as follows: native gel or EMSA; BN-PAGE with Western blot of HeLa cell lysates (NativePAGE Sample Prep Kit, Coomassie G-250, 3-12% BisTris gels), non-denaturing.
Data set [2] deals with the molecule itself. The data set is described as follows: native gel or EMSA; BN-PAGE of purified GFP fusion proteins, Coomassie blue staining.
Data set [3] concerns the molecule itself. The data set is described as follows: dynamic light scattering; Malvern Zetasizer Nano ZS, 25°C; 50 mM NaH2PO4, 300 mM NaCl, 250 mM imidazole, pH 8.0; 0.4 mg/ml; oligomeric state from the apparent hydrodynamic diameter.
Data set [4] deals with the molecule itself. The data set is described as follows: non-reducing SDS-PAGE with Western blot; lysates of transfected HEK or HeLa cells, SDS loading buffer without reducing reagents, on ice 5 min, 8% gel; some samples also under reducing condition or with 10 mM NEM in the lysis buffer.

B1: Flag-tagged PKD2L1 ΔNT (deletion of M1-Y96) (domain or fragment, human, UniProt Q9P0L9-1 97-805, looked up)
chain: IKTTLRELLVYIVFLVDICLLTYGMTSSSAYYYTKVMSELFLHTPSDTGVSFQAISSMADFWDFAQGPLLDSLYWTKWYNNQSLGHGSHSFIYYENMLLGVPRLRQLKVRNDSCVVHEDFREDILSCYDVYSPDKEEQLPFGPFNGTAWTYHSQDELGGFSHWGRLTSYSGGGYYLDLPGSRQGSAEALRALQEGLWLDRGTRVVFIDFSVYNANINLFCVLRLVVEFPATGGAIPSWQIRTVKLIRYVSNWDFFIVGCEVIFCVFIFYYVVEEILELHIHRLRYLSSIWNILDLVVILLSIVAVGFHIFRTLEVNRLMGKLLQQPNTYADFEFLAFWQTQYNNMNAVNLFFAWIKIFKYISFNKTMTQLSSTLARCAKDILGFAVMFFIVFFAYAQLGYLLFGTQVENFSTFIKCIFTQFRIILGDFDYNAIDNANRILGPAYFVTYVFFVFFVLLNMFLAIINDTYSEVKEELAGQKDELQLSDLLKQGYNKTLLRLRLRKERVSDVQKVLQGGEQEIQFEDFTNTLRELGHAEHEITELTATFTKFDRDGNRILDEKEQEKMRQDLEEERVALNTEIEKLGRSIVSSPQGKSGPEAARAGGWVSGEEFYMLTRRVLQLETVLEGVVSQIDAVGSKLKMLERKGWLAPSPGVKEQAIWKHPQPAPAVTPDPWGVQGGQESEVPYKREEEALEERRLSRGEIPTLQRS
notes: PKD2L1, human, deletion of the N-terminus M1-Y96; also called Flag-ΔNT; Ctrl (ΔNT); source: HeLa or HEK cells, transfected, in lysate; not shown: Flag, N-terminal, kept
A word on the stoichiometry N: it is a count of units in the complex or per binding partner. As to B1, the “stoichiometry N” value in data set [1] worked out at 3.

B2: GFP-C1 (GFP fused to PKD2L1 C1, K575-T622) (domain or fragment, human, UniProt Q9P0L9-1 575-622, looked up)
chain: KDELQLSDLLKQGYNKTLLRLRLRKERVSDVQKVLQGGEQEIQFEDFT
notes: PKD2L1, human, domain C1 K575-T622 (48 amino acids), in pET28a(+) with an upstream GFP gene; source: E. coli BL21 (DE3), purified (Ni-NTA); not shown: GFP, N-terminal, kept
For the protein B2, the “stoichiometry N” value in data set [2] was found to be 3.

B3: purified PKD2L1 C-terminus (CT, E566-S805) (domain or fragment, human, UniProt Q9P0L9-1 566-805, looked up)
chain: EVKEELAGQKDELQLSDLLKQGYNKTLLRLRLRKERVSDVQKVLQGGEQEIQFEDFTNTLRELGHAEHEITELTATFTKFDRDGNRILDEKEQEKMRQDLEEERVALNTEIEKLGRSIVSSPQGKSGPEAARAGGWVSGEEFYMLTRRVLQLETVLEGVVSQIDAVGSKLKMLERKGWLAPSPGVKEQAIWKHPQPAPAVTPDPWGVQGGQESEVPYKREEEALEERRLSRGEIPTLQRS
notes: PKD2L1, human, C-terminus E566-S805; the methods describe only GFP-C1 in pET28a(+) and Ni-NTA; the DLS buffer holds 250 mM imidazole; source: E. coli, purified
As for B3, in data set [3], the “stoichiometry N” value came to 3.

B4: human PKD2L1 over-expressed from pcDNA3.1(+) (natural protein, UniProt Q9P0L9-1 1-805, looked up)
chain: MNAVGSPEGQELQKLGSGAWDNPAYSGPPSPHGTLRVCTISSTGPLQPQPKKPEDEPQETAYRTQVSSCCLHICQGIRGLWGTTLTENTAENRELYIKTTLRELLVYIVFLVDICLLTYGMTSSSAYYYTKVMSELFLHTPSDTGVSFQAISSMADFWDFAQGPLLDSLYWTKWYNNQSLGHGSHSFIYYENMLLGVPRLRQLKVRNDSCVVHEDFREDILSCYDVYSPDKEEQLPFGPFNGTAWTYHSQDELGGFSHWGRLTSYSGGGYYLDLPGSRQGSAEALRALQEGLWLDRGTRVVFIDFSVYNANINLFCVLRLVVEFPATGGAIPSWQIRTVKLIRYVSNWDFFIVGCEVIFCVFIFYYVVEEILELHIHRLRYLSSIWNILDLVVILLSIVAVGFHIFRTLEVNRLMGKLLQQPNTYADFEFLAFWQTQYNNMNAVNLFFAWIKIFKYISFNKTMTQLSSTLARCAKDILGFAVMFFIVFFAYAQLGYLLFGTQVENFSTFIKCIFTQFRIILGDFDYNAIDNANRILGPAYFVTYVFFVFFVLLNMFLAIINDTYSEVKEELAGQKDELQLSDLLKQGYNKTLLRLRLRKERVSDVQKVLQGGEQEIQFEDFTNTLRELGHAEHEITELTATFTKFDRDGNRILDEKEQEKMRQDLEEERVALNTEIEKLGRSIVSSPQGKSGPEAARAGGWVSGEEFYMLTRRVLQLETVLEGVVSQIDAVGSKLKMLERKGWLAPSPGVKEQAIWKHPQPAPAVTPDPWGVQGGQESEVPYKREEEALEERRLSRGEIPTLQRS
notes: PKD2L1, human, full-length cDNA in pcDNA3.1(+), no tag named for this experiment; also called TRPP3; source: HEK293T and HeLa cells, transfected, in lysate
Regarding B4, in data set [4], the “stoichiometry N” value is 2 and 3 and 4.

B5: Flag-tagged human PKD2L1 WT (natural protein, UniProt Q9P0L9-1 1-805, looked up)
chain: MNAVGSPEGQELQKLGSGAWDNPAYSGPPSPHGTLRVCTISSTGPLQPQPKKPEDEPQETAYRTQVSSCCLHICQGIRGLWGTTLTENTAENRELYIKTTLRELLVYIVFLVDICLLTYGMTSSSAYYYTKVMSELFLHTPSDTGVSFQAISSMADFWDFAQGPLLDSLYWTKWYNNQSLGHGSHSFIYYENMLLGVPRLRQLKVRNDSCVVHEDFREDILSCYDVYSPDKEEQLPFGPFNGTAWTYHSQDELGGFSHWGRLTSYSGGGYYLDLPGSRQGSAEALRALQEGLWLDRGTRVVFIDFSVYNANINLFCVLRLVVEFPATGGAIPSWQIRTVKLIRYVSNWDFFIVGCEVIFCVFIFYYVVEEILELHIHRLRYLSSIWNILDLVVILLSIVAVGFHIFRTLEVNRLMGKLLQQPNTYADFEFLAFWQTQYNNMNAVNLFFAWIKIFKYISFNKTMTQLSSTLARCAKDILGFAVMFFIVFFAYAQLGYLLFGTQVENFSTFIKCIFTQFRIILGDFDYNAIDNANRILGPAYFVTYVFFVFFVLLNMFLAIINDTYSEVKEELAGQKDELQLSDLLKQGYNKTLLRLRLRKERVSDVQKVLQGGEQEIQFEDFTNTLRELGHAEHEITELTATFTKFDRDGNRILDEKEQEKMRQDLEEERVALNTEIEKLGRSIVSSPQGKSGPEAARAGGWVSGEEFYMLTRRVLQLETVLEGVVSQIDAVGSKLKMLERKGWLAPSPGVKEQAIWKHPQPAPAVTPDPWGVQGGQESEVPYKREEEALEERRLSRGEIPTLQRS
notes: PKD2L1, human, full-length cDNA in pcDNA3.1(+), Flag inserted 5' of the coding region; also called Flag-PKD2L1; source: HeLa cells, transfected, in lysate; not shown: Flag, N-terminal, kept
As to B5, the “stoichiometry N” value in data set [1] is 3 and 2.

B6: Flag-tagged PKD2L1 ΔNT/T622X (M1-Y96 and T622-S805 double deletion) (domain or fragment, human, UniProt Q9P0L9-1 97-621, looked up)
chain: IKTTLRELLVYIVFLVDICLLTYGMTSSSAYYYTKVMSELFLHTPSDTGVSFQAISSMADFWDFAQGPLLDSLYWTKWYNNQSLGHGSHSFIYYENMLLGVPRLRQLKVRNDSCVVHEDFREDILSCYDVYSPDKEEQLPFGPFNGTAWTYHSQDELGGFSHWGRLTSYSGGGYYLDLPGSRQGSAEALRALQEGLWLDRGTRVVFIDFSVYNANINLFCVLRLVVEFPATGGAIPSWQIRTVKLIRYVSNWDFFIVGCEVIFCVFIFYYVVEEILELHIHRLRYLSSIWNILDLVVILLSIVAVGFHIFRTLEVNRLMGKLLQQPNTYADFEFLAFWQTQYNNMNAVNLFFAWIKIFKYISFNKTMTQLSSTLARCAKDILGFAVMFFIVFFAYAQLGYLLFGTQVENFSTFIKCIFTQFRIILGDFDYNAIDNANRILGPAYFVTYVFFVFFVLLNMFLAIINDTYSEVKEELAGQKDELQLSDLLKQGYNKTLLRLRLRKERVSDVQKVLQGGEQEIQFEDF
notes: PKD2L1, human, M1-Y96 and T622-S805 deleted; source: HeLa cells, transfected, in lysate; not shown: Flag, N-terminal, kept
Consider B6, for which, in data set [4], the “stoichiometry N” value came to 3.
